# Reference: patent publication US8535928B2, “Protease and use thereof” (Osaka University, priority 2008, dated 2013)
# B1: Thermococcus kodakaraensis KOD1 protease Tk-SP (mature subtilisin-like serine protease, SEQ ID NO: 1 or SEQ ID NO: 3) (Thermococcus kodakarensis KOD1) (protein)
# chain: VETEGLDESAAQVMATNMWNLGYDGSGITIGIIDTGIDASHPDLQGKVIGWVDFVNGKTTPYDDNGHGTHVASIAAGTGAASNGKYKGMAPGAKLVGIKVLNGQGSGSISDIINGVDWAVQNKDKYGIKVINLSLGSSQSSDGTDSLSQAVNNAWDAGLVVVVAAGNSGPNKYTVGSPAAASKVITVGAVDKYDVITDFSSRGPTADNRLKPEVVAPGNWIIAARASGTSMGQPINDYYTAAPGTSMATPHVAGIAALLLQAHPSWTPDKVKTALIETADIVKPDEIADIAYGAGRVNAYKAAYYDNYAKLTFTGYVSNKGSQSHQFTISGAGFVTATLYWDNSGSDLDLYLYDPNGNQVDYSYTAYYGFEKVGYYNPTAGTWTIKVVSYSGSANYQVDVVSDGSLGQPSGGGSEPSPSPSPEPTV
# notes: C-terminus at 562 or 563
# B2: Thermococcus kodakaraensis KOD1 Tk-subtilisin (Tk-sub) (Thermococcus kodakarensis KOD1) (protein)
# chain: GKPSWLGGGSTQPAQTIPWGIERVKAPSVWSITDGSVSVIQVAVLDTGVDYDHPDLAANIAWCVSTLRGKVSTKLRDCADQNGHGTHVIGTIAALNNDIGVVGVAPGVQIYSVRVLDARGSGSYSDIAIGIEQAILGPDGVADKDGDGIIAGDPDDDAAEVISMSLGGPADDSYLYDMIIQAYNAGIVIVAASGNEGAPSPSYPAAYPEVIAVGAIDSNDNIASFSNRQPEVSAPGVDILSTYPDDSYETLMGTSMATPHVSGVVALIQAAYYQKYGKILPVGTFDDISKNTVRGILHITADDLGPTGWDADYGYGVVRAALAVQAALG
# What was measured:
# [1] = substrate: C[C@H](NC(=O)CCC(=O)O)C(=O)N[C@@H](C)C(=O)N1CCC[C@H]1C(=O)N[C@@H](Cc1ccccc1)C(=O)Nc1ccc([N+](=O)[O-])cc1; assay: Rate parameters of Tk-SP with Suc-AAPF-pNA (Michaelis-Menten); assay type: biochemical, Thermococcus kodakaraensis KOD1; details: substrate 0.01 to 2 mM
# Procedure: (§1) For examination of the pH dependence and the buffer dependence of the Tk-SP, enzyme reactions were performed using acetate buffers (pH 4.5, 5.0, 5.2, 5.4 and 5.6), MES buffers (pH 5.5, 6.0, 6.5 and 7.0), HEPES buffers (pH 7.0 and 7.5), Tris-HCl buffers (pH 7.0, 7.5, 8.0, 8.5 and 9.0), glycine-NaOH buffers (pH 8.5, 9.0, 9.5 and 10.0) and CAPS-NaOH buffers (pH 9.0, 9.5, 10.0, 10.5, 11.0 and 11.5) in the following procedure. 100 μl of a reaction mixture containing a 50 mM buffer and 2 mM Suc-AAPF-pNA (synthetic substrate) was incubated at 20° C. for 5 minutes. To this, 0.1 μg of the Tk-SP was added and the reaction mixture was further incubated at 20° C. for 10 minutes. The reaction was stopped by addition of 10 μl of acetic acid, and then the amount of p-nitroaniline produced from the synthetic substrate Suc-AAPF-pNA was determined by use of the absorption coefficient of 8900 M^−1 cm^−1 from the absorbance at 410 nm in an ultraviolet spectrophotometer (Beckman model DU640). The amount of the enzyme which catalyzes the production of 1 μmol of p-nitroaniline per minute was defined as “one unit.” The enzyme activity per milligram of the protein was defined as specific activity.
# (§2) By use of, as a substrate, Suc-AAPF-pNA at various concentrations ranging from 0.01 to 2 mM, the specific activity of the Tk-SP was measured at 20 and 80° C. The measurement procedure was the same as that of Example 2. The obtained values were applied to the Michaelis-Menten equation for calculation of the rate parameters. For comparison, the specific activity of a known thermostable protease, Tk-subtilisin (see nonpatent literature 1) was similarly measured and then the rate parameters thereof were calculated.
# [2] = substrate: C[C@H](NC(=O)CCC(=O)O)C(=O)N[C@@H](C)C(=O)N1CCC[C@H]1C(=O)N[C@@H](Cc1ccccc1)C(=O)Nc1ccc([N+](=O)[O-])cc1; assay: Rate parameters of Tk-subtilisin with Suc-AAPF-pNA (Michaelis-Menten), comparison; assay type: biochemical, Thermococcus kodakaraensis KOD1; details: substrate 0.01 to 2 mM
# Procedure: as §1, §2
Protein,"Km ([1]; other: 20° C., 20.0 °C) [mM]","Vmax ([1]; other: 20° C., 20.0 °C) [U/mg]","kcat ([1]; other: 20° C., 20.0 °C) [S^−1]","Km ([1]; other: 80° C., 80.0 °C) [mM]","Vmax ([1]; other: 80° C., 80.0 °C) [U/mg]","kcat ([1]; other: 80° C., 80.0 °C) [S^−1]","Km ([2]; other: 20° C., 20.0 °C) [mM]","Vmax ([2]; other: 20° C., 20.0 °C) [U/mg]","kcat ([2]; other: 20° C., 20.0 °C) [S^−1]","Km ([2]; other: 80° C., 80.0 °C) [mM]","Vmax ([2]; other: 80° C., 80.0 °C) [U/mg]","kcat ([2]; other: 80° C., 80.0 °C) [S^−1]"
B1,0.117,2.312,1.704,0.416,34.84,25.668,,,,,,
B2,,,,,,,4.00,38.00,26.00,8.00,420.00,290.00
